Measurements reported in patent publication US20090130133A1 (VAXON BIOTECH, published 2009).

B1: MAGE-A248V9 (peptide)
peptide: YLEYRQVPV
notes: also called optimized variant of MAGE-A248D9/G9
B2: TERT988Y (peptide)
peptide: YLQVNSLQTV
notes: also called optimized variant of the cryptic peptide TERT988
B3: HER-2/neu402Y (peptide)
peptide: YLEEITGYL
notes: also called optimized variant of the cryptic peptide HER-2/neu402

The binders below were run against T1, HLA-A*0201 (human) (assay: T2 cells loaded with 100 µM peptide, Brefeldin A, decay of HLA-A*0201 labelling (mAb BB7.2) over 0-6 h).
T1 construct: whole, on cells; MHC class I molecule on T2 cells; also called HLA-A2
Experimental: (§1) The protocol used to measure relative affinity (RA) is described in detail elsewhere (Tourdot et al., 2000). […] The cells were then treated with Brefeldin A for 1 h, washed, incubated at 37° C. for 0, 2, 4 and 6 hours, and labeled with mAb BB7.2.

Binder	DC50 (half-life of the HLA/peptide complex)
B1	4 h
B2	> 6 h
B3	4 h

The binders below were run against T1, HLA-A*0201 (assay: T2 cell HLA-A*0201 stabilisation, flow cytometry with mAb BB7.2; peptide concentration / reference peptide concentration giving 20% HLA-A*0201 expression).
Experimental: as §1

Binder	RA (relative affinity)
B1	1.8 ratio to reference peptide HIVpol589 (reference = 1)
B2	2.1 ratio to reference peptide HIVpol589 (reference = 1)
B3	3.6 ratio to reference peptide HIVpol589 (reference = 1)
